Results as given in patent US9187735B2, “Metal abstraction peptide with superoxide dismutase activity” (University of Kansas, priority 2012, dated 2015).
No end group written: not given here.

Key:
[1] = Cyclic voltammetry, midpoint potential; assay type: physicochemical; settings: pH 10, measured immediately after generation
Protocol: Electrochemical data were collected. A 3 mL sample of 3 mM Ni-NCC was prepared in 50 mM sodium borate at pH 10. CV data were collected with a CH1812C Electrochemical Analyzer potentiostat (CH Instruments) with a three-electrode setup (platinum working electrode, Bioanalytical Systems, Inc.; Pt auxiliary electrode; Ag/AgCl reference electrode) in a glass CV cell. Potential was applied from zero to 1.2 V with a scan rate of 0.2 V per second, and current was measured. The same experiment was attempted on a 3 mM Ni-NCC sample in 50 mM potassium phosphate at the same pH. The sample was incubated for 24 hours and analyzed again.
Electrochemical data were collected as previously described. 3-mL samples of 3 mM Ni-GGNCC (SEQ ID NO. 1) and Ni-GGGCC (SEQ ID NO. 3) were prepared in 50 mM potassium phosphate at pH 7.4. After incorporation, pH was raised to 10 to observe more intense signal. Cyclic voltammetry (CV) data were collected with a CH1812C Electrochemical Analyzer potentiostat (CH Instruments) with a three-electrode setup (platinum working electrode, Bioanalytical Systems, Inc.; Pt auxiliary electrode; Ag/AgCl reference electrode) in a glass CV cell. Potential was applied from zero to 1.2 V with a scan rate of 0.2 V per second, and current was measured.

[2] = Ni-SOD xanthine/xanthine oxidase coupled assay (superoxide scavenging); assay type: biochemical; settings: cytochrome c, absorbance at 550 nm, reaction buffer pH 7.8
Protocol: Ni-SOD activity was determined, except Ni-NCC was generated in situ using one equivalent NiSO4. Ni-NCC was aged for 0-120 minutes, and the Ni-SOD activity was determined using the standard xanthine/xanthine oxidase method developed by Crappo and coworkers. All reagents were generated in 50 mM potassium phosphate, 100 μM EDTA reaction buffer at pH 7.8 except for Ni-NCC, which was generated in 50 mM potassium phosphate, pH 7.4. 600 μM cytochrome c from bovine heart (Sigma), 300 μM xanthine (Sigma) and enough xanthine oxidase from buttermilk (Sigma) to cause a change in absorbance at […] of 0.02-0.04 AU per minute were added to a final volume of 300 μL with reaction buffer. The change in absorbance at 550 nm was monitored on a Cary 100 UV-Visible spectrophotometer (Varian). The assay was performed with 100 μM Ni-NCC.
Superoxide scavenging activity was determined as reported previously, except Ni-peptides were generated in situ using one equivalent of NiSO4. Superoxide scavenging activity of Ni-GGGCC (SEQ ID NO. 3), Ni-GGNCC (SEQ ID NO. 1), Ni-GNNCC (SEQ ID NO. 4), and Ni-GNGCC (SEQ ID NO. 5) was determined using the standard xanthine/xanthine oxidase method developed by Crapo and coworkers. […] The change in absorbance at 550 nm was monitored on a Cary 100 UV-Visible spectrophotometer (Varian).

[3] = Photopolymerization of hydroxy ethyl methacrylic acid (HEMA), rate by FTIR; settings: light 550 mW cm-2 for 40 seconds
Protocol: Photopolymerization of hydroxy ethyl methacrylic acid (HEMA) was initiated using a visible light-curing unit (Spectrum® 800, Dentsply, Milford, Del., USA) at an intensity of 550 mW cm-2 for 40 seconds. The subsequent rate of polymerization was measured via FTIR and is reported as a normalized ratio of peak intensities from unreacted and reacted monomer (1455 cm^−1 and 1673 cm^−1). The rate of polymerization was altered by the addition of Ni-NCC and Ni-GGNCC (SEQ ID NO. 1). See FIG. 31, illustrating the percentage of polymer remaining over time.

IC50 [2] [µM] | Substance | midpoint potential [1] [V vs Ag/AgCl] | effect on rate of polymerization [3]
– | Ni-GGGCC: nickel complex of pentapeptide GGGCC (SEQ ID NO. 3) (cysteine pairing not given here; also: nickel complex) | 0.78 | –
9.1 | XXLLL-GGNCC (not fully specified (N-terminus); cysteine pairing not given here; also: metallated with nickel) [Ni-GGNCC] | 0.8 | slowed the rate of polymerization
